Experimental findings from PMC3068233 are described below.

Positions count from the first letter of the chain named.

The Kd is a measure of binding affinity in units of concentration. A high value points to a looser complex.

The target in one data set is T1, HMGB1 domain A wild type (UniProt P09429 9-79).
T1 sequence: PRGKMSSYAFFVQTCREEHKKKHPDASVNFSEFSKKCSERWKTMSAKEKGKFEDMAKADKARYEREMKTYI
Description: EMSA. On the technique in general: A gel shift assay detects complexes by their altered migration in electrophoresis.

The target of the next data set is T2, HMGB1 domain A C22A/C44A (UniProt P09429 9-79, C23A;C45A).
T2 sequence: T1 sequence with C15A, C37A
Kind of data set: hydroxyl radical footprinting.

The target of the next data set is T3, HMGB1 domain A C44S (UniProt P09429 9-79, C45S).
T3 sequence: T1 sequence with C37S
Kind of data set: EMSA.

In the next data set the target is T4, HMGB1 domain A C44A (UniProt P09429 9-79, C45A).
T4 sequence: T1 sequence with C37A
Description: EMSA.

The next data set deals with T5, HMGB1 domain A C22A (UniProt P09429 9-79, C23A).
T5 sequence: T1 sequence with C15A
Description: EMSA.

In a further data set the target is T6, HMGB1 domain A C22S/C44S (UniProt P09429 9-79, C23S;C45S).
T6 sequence: T1 sequence with C15S, C37S
Kind of data set: EMSA.

B1: 25-bp cisplatin-modified TGGA probe (dsDNA)
DNA 1: CCTCTCCTCTCTGGATCTTCTCTCC
DNA 2: GGAGAGAAGATCCAGAGAGGAGAGG
modifications: cisplatin 1,2-d(GpG) intrastrand cross-link at N7 of G13 and G14 of strand 1
On to B1, for which the Kd stood at 0.7 ± 0.1 nM in the data set with HMGB1 domain A wild type; 1.6 ± 0.07 nM in the data set with HMGB1 domain A C44S; 2.41 ± 0.31 nM in the data set with HMGB1 domain A C44A; 1.12 ± 0.14 nM in the data set with HMGB1 domain A C22A; 1.65 ± 0.37 nM with HMGB1 domain A C22S/C44S. Besides, in the data set with HMGB1 domain A C22A/C44A, the binding result is recorded as “binds”.
